Results: publication PMC11225919

Biological target: T1, Fur (6xHis-tagged) (Salmonella enterica serovar Infantis 119944) (UniProt A0A4Z0KGQ7)
T1 sequence: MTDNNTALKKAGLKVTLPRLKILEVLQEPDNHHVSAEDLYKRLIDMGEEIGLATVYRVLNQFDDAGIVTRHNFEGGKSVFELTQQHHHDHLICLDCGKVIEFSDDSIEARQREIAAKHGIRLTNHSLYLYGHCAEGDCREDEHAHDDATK
Test: EMSA

CCGGGGTCGCGCCCCCATAAACGCCTCCCTGACAGAGGCCCGGATACCCCATCCGGGCCTCTGTTCTTTCCGCCTGTTACCAACCCGAAACGGGCATAAATAAACCCGTTTCGGGTAGCATACAATTGTTAATAATTATTATTCTCATATGAGCAATGCTTTTCGGTAAGACGTGCCATCAGGAGGAAGA (double strand) [irp2 promoter (pESI)]
binding: binds
